From US20130331738A1, “COMPOSITIONS AND METHODS FOR POTENTIATING SONOTHROMBOLYSIS” (Board of Trustees University of Arkansas, priority 2012, published 2013) come the findings set out here.

The subject of the assay is rigid clots (pooled rabbit plasma, fresh rabbit blood cells, thrombin). In words: Sonothrombolysis of aged and rigid clots, 1 MHz pulsed ultrasound in a Mylar flow chamber. The note with it: 0.1 mg/mL of tPA and/or MBs at about 0.5-2.5×10^8 MB/mL. Here is the method: To assess the effect of CPDL and/or degradable starch nanoparticles on the efficacy of sonothrombolysis, the following experiment was conducted. Rigid clots were formed by mixing pooled rabbit plasma with fresh rabbit blood cells and 30 U/mL of thrombin. The clots were incubated at 37° C. in glass tubes for 24 h followed by curing at 5° C. for 24 h. The total clot volumes and mass densities of each main clot were measured, and then 9-11 mg pieces were cut from the main clot. Each clot piece was weighed and then insonated with 1 MHz, pulsed ultrasound in a Mylar flow chamber through which fresh rabbit serum containing tPA and/or microbubbles (MBs) were introduced continuously. Sonothrombolysis efficacy was quantified as the % of clot mass lysed in 15 min. A stable nanoemulsion of CPDL at a concentration ranging from about 0.003-0.06% w/V, and/or 50-200 nm degradable starch nanoparticles were added to the system to enhance sonothrombolysis efficacy.

B1: tPA: tissue plasminogen activator (protein, UniProt P00750 36-562, looked up)
Tissue-type plasminogen …: SYQVICRDEKTQMIYQQHQSWLRPVLRSNRVEYCWCNSGRAQCHSVPVKSCSEPRCFNGGTCQQALYFSDFVCQCPEGFAGKCCEIDTRATCYEDQGISYRGTWSTAESGAECTNWNSSALAQKPYSGRRPDAIRLGLGNHNYCRNPDRDSKPWCYVFKAGKYSSEFCSTPACSEGNSDCYFGNGSAYRGTHSLTESGASCLPWNSMILIGKVYTAQNPSAQALGLGKHNYCRNPDGDAKPWCHVLKNRRLTWEYCDVPSCSTCGLRQYSQPQFRIKGGLFADIASHPWQAAIFAKHRRSPGERFLCGGILISSCWILSAAHCFQERFPPHHLTVILGRTYRVVPGEEEQKFEVEKYIVHKEFDDDTYDNDIALLQLKSDSSRCAQESSVVRTVCLPPADLQLPDWTECELSGYGKHEALSPFYSERLKEAHVRLYPSSRCTSQHLLNRTVTDNMLCAGDTRSGGPQANLHDACQGDSGGPLVCLNDGRMTLVGIISWGLGCGQKDVPGVYTKVTNYLDWIRDNMRP
As for B1, the “efficacy of sonothrombolysis for more rigid and aged clots” value is “reduced markedly”.
